Experimental data from PMC2891831, “Insight into the Mechanisms of Adenovirus Capsid Disassembly from Studies of Defensin Neutralization” (PLoS Pathogens, 2010).
Like-named read-outs stand apart in the source and are kept apart here.

Assays:
HAdV-5 capsid = test: Virus-defensin equilibrium-binding assay, HAdV-5; design: species or system human adenovirus
Protocol: Neutralization of HAdV by α-defensins is dependent upon binding to the virus capsid, which can be disrupted in the presence of elevated concentrations of sodium chloride. To perform a more quantitative assessment of this interaction, increasing concentrations of HD5 were incubated with Ad5.eGFP to allow binding, and the virus/HD5 complex was then separated from unbound HD5 on a nycodenz gradient. Bound defensin was visualized after SDS-PAGE using a sensitive fluorescent total protein stain and quantified against a standard curve.
(§1) Figure 2 HD5 binding to HAdV. A) HD5 binding to a representative defensin-sensitive serotype (HAdV-5) was quantified by an equilibrium-binding assay. Data are the mean of the number of HD5 molecules bound per virion at the indicated HD5 concentrations from at least three independent experiments ± SD. Binding curves were fitted using Prism software. B) Binding of HD5 to additional defensin-sensitive (HAdV-7p) and resistant (HAdV-19c, -25p, -51p) serotypes expressed as a percent of HD5 bound to HAdV-5. Data are the mean of two or three independent experiments ± SD.
To measure HD5 binding to HAdV-5 and -51, HD5 was serially diluted in PBS and mixed with 5 µg purified virus. After 1 h incubation on ice, one half of each sample was separated by ultracentrifugation [209,000×g (avg.) for 2 hrs at 4°C] on a discontinuous gradient consisting of 300 µl of 30% nycodenz and 200 µl of 80% nycodenz in 50 mM NaCl, 20 mM HEPES pH 7.4 using an SW55ti rotor with adaptors (Beckman Coulter, Inc.). The visible virus band was collected. The other half of each sample was used to make a standard curve for quantification. All samples were boiled in reducing loading buffer and separated using a 16% PAGEgel (Expedeon, Inc., San Diego, CA) or 10–20% Tris-Tricine gel (Bio-Rad, Hercules, CA). The gels were stained with Deep Purple (GE Healthcare) and imaged on a Typhoon Trio. Virus bands were quantified using ImageQuant NT software (GE Healthcare). The amount of HD5 in each sample was normalized to protein V and hexon. The amount of HD5 in the centrifuged samples was then quantified against the standard curve using Prism software. Affinity and stoichiometry were estimated from the average data of at least three independent experiments using Prism software.

HAdV-51p = test: Virus-defensin binding assay, HAdV-51p; design: species or system human adenovirus
Source text: as §1
We assessed HD5 binding to additional serotypes after incubation with 20 µM HD5 (Figure 2B). The sensitive serotype HAdV-7p bound 69.3±15.9% of the amount of HD5 bound to HAdV-5 in parallel samples; whereas, the corresponding values for the resistant serotypes HAdV-19c, -25p, and -51p were 32.5±7.5%, 3.3±5.8%, and 24.6±12.0%, respectively.
To measure HD5 binding to HAdV-5 and -51, HD5 was serially diluted in PBS and mixed with 5 µg purified virus. […] The other half of each sample was used to make a standard curve for quantification. […] Virus bands were quantified using ImageQuant NT software (GE Healthcare). […] The amount of HD5 in the centrifuged samples was then quantified against the standard curve using Prism software. […]

HAdV-7 = test: Virus-defensin binding, HAdV-7; design: species or system human adenovirus
HAdV-5 = details: ref [13], cited from earlier work

B1: HD5: human alpha-defensin; synthetic, obtained from Peptides International; three disulfide bonds (PDB 1ZMP) (peptide, UniProt Q01523 20-94, looked up)
Defensin alpha 5: ESLQERADEATTQKQSGEDNQDLAISFAGNGLSALRTSGSQARATCYCRTGRCATRESLSGVCEISGRLYRLCCR
modifications: Defensin-5
95% confidence interval of HD5 molecules bound per virus particle at saturation (HAdV-5 capsid; 95% confidence interval): 1603–3919 HD5 molecules | Kd (HAdV-5 capsid; 95% confidence interval, read-out: 95% confidence interval of KD): 2.8 to 26.2 µM | level of HD5 binding (in words) (HAdV-5 capsid; HAdV-5): specific binding | Kd (HAdV-5 capsid; equilibrium binding, Ad5.eGFP, 1 h on ice in PBS, nycodenz gradient, at least three independent experiments, read-out: KD): ~14.5 µM | HD5 bound, percent of HD5 bound to HAdV-5 (HAdV-51p; 20 µM HD5, mean of two or three independent experiments ± SD): 24.6±12.0% | level of HD5 binding (in words) (HAdV-51p; HAdV-51p): only a low level of binding | level of HD5 binding (in words) (HAdV-7): specific binding | inhibition of HAdV-5 infection (HAdV-5; low micromolar concentrations): significantly inhibit HAdV-5 infection at low micromolar concentrations | productive infection by HAdV-5 (HAdV-5): almost complete block to productive infection | IC50 (HAdV-5; read-out: IC50 for HAdV-5 infection): 3 to 4 µM
